Patent US20080305122A1

What was measured:
[1] = biological target: PGCC(95-104) epitope peptide (Ac-…-NH2), pigeon cytochrome C (pigeon); assay: ELISA, coated PGCC(95-104) peptide, control mouse serum, anti-mouse IgG1 or IgG2a detection
[2] = biological target: HIV gp160(843-855) peptide (HIV); assay: ELISA, coated HIV gp160(843-855) peptide, control mouse serum, anti-mouse IgG1 or IgG2a detection

Substance | ELISA absorbance at 450 nm, serum dilution 1:20 (absorbance (450 nm)) [1] | ELISA absorbance at 450 nm, serum dilution 1:60 (absorbance (450 nm)) [1] | ELISA absorbance at 450 nm, serum dilution 1:180 (absorbance (450 nm)) [1] | ELISA absorbance at 450 nm, serum dilution 1:540 (absorbance (450 nm)) [1] | ELISA absorbance at 450 nm, serum dilution 1:20 (absorbance (450 nm)) [2] | ELISA absorbance at 450 nm, serum dilution 1:60 (absorbance (450 nm)) [2] | ELISA absorbance at 450 nm, serum dilution 1:180 (absorbance (450 nm)) [2] | ELISA absorbance at 450 nm, serum dilution 1:540 (absorbance (450 nm)) [2] | ELISA absorbance at 450 nm, serum dilution 1:1620 (absorbance (450 nm)) [1] | ELISA absorbance at 450 nm, serum dilution 1:4860 (absorbance (450 nm)) [1]
Serum of mice given no immunogen (control of Table 22.1) (antibody) | 0.105 | 0.72 | 0.049 | 0.036 |  |  |  |  |  | 
Serum of mice given no immunogen (control of Table 22.3) (antibody) |  |  |  |  | 0.084 | 0.045 | 0.004 | -0.003 |  | 
Serum of mice given no immunogen (control of Table 22.2) (antibody) | 0.042 | 0.004 | -0.003 | 0.007 |  |  |  |  | 0.006 | 0.005
